# According to US12624396B2, “Methods for alleviating facioscapulohumeral dystrophy (FSHD) by an antisense nucleic acid molecule inhibiting the expression of double homeobox 4 (DUX4)” (Fred Hutchinson Cancer Center, priority 2010, dated 2026):
# “Also recorded” adds a separate entry of the source.
# Assays:
# [1] = test system: DUX4-fl target genes in FSHD muscle cells; assay: Knockdown of DUX4-fl targets in FSHD muscle cells by lentiviral DUX4-s; assay type: cell-based, human; settings: FSHD cultured muscle cells transduced with lenti-DUX4-s, 48 hours of differentiation; real-time RT-PCR; FIG. 21
# Procedure: Simultaneously, cells were transduced by lentivirus carrying DUX4-s or GFP along with 8 μg/mL polybrene. Cells were washed and changed to plain differentiation media after 24 hours. Cells were harvested for RNA after 48 hours of differentiation.
# One microgram of total RNA was reverse transcribed into first strand cDNA in a 20 uL reaction using SuperScript III (Invitrogen) and digested with 1 U of RNase H (Invitrogen) for 20 min at 37° C. cDNA was diluted and used for quantitative PCR with iTaq SYBR Green supermix with ROX (Bio-Rad). The relative expression levels of target genes were normalized to those of ribosomal protein L13A (RPL13A) by 2^ΔCt. Undetermined values were equated to zero. Standard deviations from the mean of the ΔCt values were calculated from triplicates. PCR primers used for detecting the transcripts of the selected genes are listed in Supplementary methods.
# Real-time RT-PCR quantitation of three DUX4 target genes, (A) PRAMEF1, (B) RFPL2 and (C) MBD3L2 in FSHD cultured muscle cells transduced with lenti-GFP or lenti-DUX4-s or untransduced. Abundance of targets was calculated relative to internal standard RPL13a and then set as percentages relative to the untransduced condition. Values represent mean+/−SEM from three independent experiments.
# [2] = test system: DUX4 binding sites from TRIM48 and ZSCAN4; assay: Luciferase assay, pGL3-promoter reporter with TRIM48 or ZSCAN4 DUX4 binding sites in RD cells; assay type: cell-based, human; settings: RD cells co-transfected with DUX4-s alone; FIG. 16
# Procedure: (§1) Transient DNA transfections of RD cells were performed using SuperFect (Qiagen) according to manufacturer specifications. Briefly, 3×10^5 cells were seeded per 35 mm plate the day prior to transfection. […] Cells were lysed 24 h post-transfection in Passive Lysis Buffer (Promega). Luciferase activities were quantified using reagents from the Dual-Luciferase Reporter Assay System (Promega) following manufacturer's instructions. Light emission was measured using BioTek Synergy2 luminometer. Luciferase data are given as the averages ±SD of at least triplicates.
# The 31 bp DUX4 binding site from TRIM48 (SEQ ID NO:96) or ZSCAN4 (SEQ ID NO:97) were inserted into the luciferase reporter construct upstream of the SV40 promoter, as shown in FIG. 16A.
# (A) reporter construct structure; Genomic fragments near the TRIM48 (B) and ZSCAN4 genes (C) containing DUX4 binding sites were cloned into pGL3-promoter reporter vector (schematic, top) and transfected into human rhabdomyoscaroma cell line RD. […] TRIM48mut and ZSCAN4mut, mutated binding sites. Luciferase activity was set relative to control.
# [3] = test system: control human muscle cells; assay: Expression of DUX4-s in control human muscle cells, apoptosis/toxicity; assay type: cell-based; settings: 48 hrs, data not shown
# Text: Both the mRNA analysis and the immunodetection indicate that approximately 0.1% of FSHD muscle nuclei express DUX4 mRNA and protein. This could represent transient bursts of expression or stochastic activation of expression that leads to cell death, or both. […] When DUX4 is expressed in control human muscle cells by lenti-viral delivery, the DUX4 protein is distributed relatively homogeneously during the first 24 hrs and then aggregates in nuclear foci at 48 hrs when the cells are undergoing apoptosis (data not shown). These DUX4 nuclear foci associated with apoptosis are present in the nuclei of FSHD muscle cultures.
# [4] = test system: DUX4 core binding motif oligos (CSF1R, TRIM48); assay: Electromobility shift assay with in vitro translated protein; parameters: species or system human; settings: radiolabeled CSF1R and TRIM48 oligos, FIG. 15D
# Procedure: EMSA was performed with ^32P-labeled 31-bp oligonucleotides from endogenous genomic sequences containing the putative DUX4 binding site as probes (sequences below; only forward shown). Radiolabeled probes were incubated with in vitro translated protein generated from pCS2-DUX4-fl or pCS2-DUX4-s^2 vectors using the TNT SP6 Coupled Wheat Germ Extract System (Promega) according to manufacturer's instructions. To obtain supershift of protein-DNA complexes, 0.1 μg of E14-3 anti-DUX4 rabbit monoclonal antibody was added to the mixtures. For competition experiments, excess unlabeled probes of either wild-type or mutant sequences were included in the binding reaction. The gels were prepared and run as previously described (Knoepfler et al., Nucleic Acids Res 27:3752-3761 (1999)).
# Supershift with DUX4 antibody E14-3 confirmed the specificity of binding. […] (d) DUX4-s also binds the same core motifs; left, CSF1R; right, TRIM48. Supershift with anti-DUX4 N-terminus antibody E14-3 confirmed specificity of binding.
# [5] = test system: control human muscle cells; settings: cultured human skeletal muscle cells; Geng et al. 2011; cited from earlier work
# [6] = target: T1, DUX4-fl (Homo sapiens, UniProt Q9UBX2); assay: Luciferase assay, ZSCAN4 1.9 kb enhancer/promoter reporter, co-transfection of DUX4-fl and DUX4-s; assay type: cell-based; settings: equal amounts of DUX4-fl and DUX4-s co-transfected in RD cells; FIG. 17C
# T1 construct: expressed in transfected cells; host or cells: human rhabdomyosarcoma cell line RD, transient transfection with pCS2-DUX4-fl
# T1 sequence (Q9UBX2 whole entry): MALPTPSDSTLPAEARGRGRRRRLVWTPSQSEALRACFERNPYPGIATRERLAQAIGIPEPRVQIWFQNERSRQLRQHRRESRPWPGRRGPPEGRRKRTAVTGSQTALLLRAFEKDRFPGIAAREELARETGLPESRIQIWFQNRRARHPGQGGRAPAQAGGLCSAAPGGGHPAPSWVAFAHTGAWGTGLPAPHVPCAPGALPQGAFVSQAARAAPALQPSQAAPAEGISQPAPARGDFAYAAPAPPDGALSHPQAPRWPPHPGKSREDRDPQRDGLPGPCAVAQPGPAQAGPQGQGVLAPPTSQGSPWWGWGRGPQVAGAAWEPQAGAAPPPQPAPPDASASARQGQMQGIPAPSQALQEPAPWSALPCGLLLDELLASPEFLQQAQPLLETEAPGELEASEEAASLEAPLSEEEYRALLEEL
# Procedure: as §1
# To determine whether DUX4 binding might directly regulate transcription of select genes, we cloned the 1.9 kb enhancer and promoter region of the ZSCAN4 gene that includes four DUX4 binding sites as follows: (DUX4 binding sites are underlined.)
# The 1.9kb enhancer and promoter region of the ZCAN4 gene that includes the four DUX4 binding sites from ZCAN4 (SEQ ID NO:100) were inserted upstream of the luciferase reporter construct (pGL3 basic luciferase vector) as shown in FIG. 17A. […] Real-time RT-PCR quantitation is reported relative to internal standard RPL13a. All data represent mean+/−SD from at least triplicates.
# [7] = test system: endogenous retroelement MaLR transcripts; assay: MaLR expression analysis after lentiviral transduction of primary human myoblasts; assay type: cell-based; settings: lentiviral transduction into primary human myoblasts; real-time RT-PCR relative to RPL13a; FIG. 17E
molecule,measurement,setting,value
"DUX4-s: short splice form of DUX4 (SEQ ID NO:68) keeping the N-terminal double-homeobox domains, lacking the C-terminal domain; expressed from vector (protein, listed as Homo sapiens) MALPTPSDSTLPAEARGRGRRRRLVWTPSQSEALRACFERNPYPGIATRERLAQAIGIPEPRVQIWFQNERSRQLRQHRRESRPWPGRRGPPEGRRKRTAVTGSQTALLLRAFEKDRFPGIAAREELARETGLPESRIQIWFQNRRARHPGQGGRAPAQV","endogenous expression of DUX4-fl target genes (PRAMEF1, RFPL2, MBD3L2)",[1],inhibited the endogenous expression of the target genes; also recorded: blocks expression of DUX4-fl target genes
same,activation of luciferase expression,[2],did not activate expression
same,induction of apoptosis,[3],does not induce apoptosis
same,binding to DUX4 core binding site (EMSA),[4],specifically binds the same core binding site as DUX4-fl
same,toxicity of forced over-expression,[5],not toxic
same,effect on DUX4-fl induced luciferase activity,[6],diminishes luciferase activity; also recorded: interfered with the activity of DUX4-fl
same,upregulation of endogenous MaLR transcripts,[7],No upregulation
